B1: Chinese hamster ovary cell-derived recombinant human bone morphogenetic protein-2 (ligand, UniProt P12643 283-396, looked up)
chain: QAKHKQRKRLKSSCKRHPLYVDFSDVGWNDWIVAPPGYHAFYCHGECPFPLADHLNSTNHAIVQTLVNSVNSKIPKACCVPTELSAISMLYLDENEKVVLKNYQDMVVEGCGCR
modifications: N-glycan (position not given)
notes: Bone morphogenetic protein 2 (BMP-2), human, CHO cell-derived, glycosylated; also called C-rhBMP-2; CHO cell-derived rhBMP-2; source: CHO cell-derived; bought: National Institute for Biological Standards and Control
B2: Escherichia coli-derived recombinant human bone morphogenetic protein-2 (ligand, UniProt P12643 283-396, looked up)
chain: QAKHKQRKRLKSSCKRHPLYVDFSDVGWNDWIVAPPGYHAFYCHGECPFPLADHLNSTNHAIVQTLVNSVNSKIPKACCVPTELSAISMLYLDENEKVVLKNYQDMVVEGCGCR
notes: Bone morphogenetic protein 2 (BMP-2), human; no glycans; Not glycosylated (made in E. coli); an added N-terminal methionine is not spoken of; also called E-rhBMP-2; E. coli-derived rhBMP-2; source: E. coli-derived; provided by Daewoong Pharmaceutical Co., Ltd

What all share (test): SPR; Biacore T200; rhBMP-2 (ligand) immobilised by EDC/NHS coupling, target level 500 RU, in 10 mM sodium acetate pH 6.0; receptors as analytes, 10-2000 nM, 30 µL/min, 120 s association and 120 s dissociation; 1:1 binding model
Holding throughout (settings): both partners purified
On the technique in general: In SPR one partner is held on a chip, and binding of the other changes the refractive index at the surface.

Experiment [1] addresses T1, BMP receptor type 2 (UniProt Q13873 27-150).
T1 construct: BMP receptor type 2 (BMPR2); No catalogue number is printed; also called BMPR2; source: bought: Thermo Fisher Scientific Co
T1 sequence (looked up): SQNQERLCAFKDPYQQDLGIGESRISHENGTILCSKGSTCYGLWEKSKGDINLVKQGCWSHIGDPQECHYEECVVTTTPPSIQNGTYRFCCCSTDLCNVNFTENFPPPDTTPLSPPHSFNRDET

Experiment [2] has as its target B2.
For experiment [3], the target named is B1.

By Kd is commonly meant the concentration at which binding is half-saturated. B1: in experiment [1], the Kd was determined as 141 nM.
With B2, the Kd in experiment [1] is 140 nM.

B3: BMP receptor type 1B (receptor, UniProt O00238 14-126, looked up)
chain: KKEDGESTAPTPRPKVLRCKCHHHCPEDSVNNICSTDGYCFTMIEEDDSGLPVVTSGCLGLEGSDFQCRDTPIPHQRRSIECCTERNECNKDLHPTLPPLKNRDFVDGPIHHR
notes: BMP receptor type 1B (BMPR1B); No catalogue number is printed; also called BMPR1B; source: bought: Thermo Fisher Scientific Co
The kon is a measure of how fast the partners come together. On to B3, for which, in experiment [2], the Kd turned out to be 194 nM and the kon was determined as 1960 M⁻¹ s⁻¹. Besides, in experiment [3], the Kd was determined as 74.3 nM and the kon was 3470 M⁻¹ s⁻¹.
